Data taken from paper PMC3092982, “Zinc Binding to the Tyr402 and His402 Allotypes of Complement Factor H: Possible Implications for Age-Related Macular Degeneration” (Journal of Molecular Biology, 2011).

Molecular target: the molecule itself
Test: AUC; sedimentation velocity, SCR-6/8 at 0.3 mg/ml (14.6 μM), Hepes buffer, 20 °C, 50,000 rpm, c(s) analysis; monomer and dimer peaks seen throughout the ZnSO4 titration 0.2-600 μM

B1: recombinant FH fragment SCR-6/8 Tyr402 (domain or fragment, human)
chain: LKPCDYPDIKHGGLYHENMRRPYFPVAVGKYYSYYCDEHFETPSGSYWDHIHCTQDGWSPAVPCLRKCYFPYLENGYNQNYGRKFVQGKSIDVACHPGYALPKAQTTVTCMENGWSPTPRCIRVKTCSKSSIDIENGFISESQYTYALKEKAKYQCKLGYVTADGETSGSITCGKDGWSAQPTCI
notes: complement factor H, human, SCR domains 6 to 8, Tyr402 allotype; It says that SCR-6/8, unlike SCR-1/5 and SCR-16/20, has no His6-tag; also called SCR-6/8 Tyr402 allotype; source: E. coli BL21 (DE3), pET21ab
- stoichiometry N: 2

B2: recombinant FH fragment SCR-6/8 His402 (domain or fragment, human)
chain: LKPCDYPDIKHGGLYHENMRRPYFPVAVGKYYSYYCDEHFETPSGSYWDHIHCTQDGWSPAVPCLRKCYFPYLENGYNQNHGRKFVQGKSIDVACHPGYALPKAQTTVTCMENGWSPTPRCIRVKTCSKSSIDIENGFISESQYTYALKEKAKYQCKLGYVTADGETSGSITCGKDGWSAQPTCI
notes: complement factor H, human, SCR domains 6 to 8, His402 allotype; It says that SCR-6/8, unlike SCR-1/5 and SCR-16/20, has no His6-tag; PDB 2UWN is a cited crystal structure of SCR-6/8 His402 whose limits may differ from this construct; also called SCR-6/8 His402 allotype; source: E. coli BL21 (DE3)pLysS, pET14b
- stoichiometry N: 2
